Measured values reported in US20220403326A1, “MEDIA FORMULATIONS AND METHODS FOR PRODUCING PROGENITOR T CELLS” (priority 2019, published 2022).

Columns and labels:
Format in all cases: cell-based, human
[1] = test system: CD34+ HSPCs; experiment: Definitive screening design cytokine screen for proT cell differentiation and expansion; conditions: for effect on total live cells, CD7+ lymphocytes and CD7+CD5+ cells relative to the control condition: day 0-7 and day 7-14, control SCF, FLT3L, TPO, IL-7 at 20 ng/ml each, linear regression model
Procedure: For experiments 7 days or longer, HSPCs were seeded at 63-125 cells/mm^2 (equivalent to 2000-4000 cells/well of a 96-well plate) on DL4+VCAM-1-coated surfaces. Experiments shorter than 7 days (CFSE and qPCR) were seeded at 470-780 cells/mm^2 (equivalent to 15,000-25,000 cells/well of a 96-well plate) to provide enough cells for analysis. Cells were cultured in 100 μl/well (32 μl/well for 384-well plate) of Iscove's Modified Eagle Medium (IMDM) supplemented with 20% bovine serum albumin, insulin, and transferrin (BIT 9500) serum substitute (Stemcell Technologies), 1 μg/ml low-density lipoprotein (LDL; Stemcell Technologies), 60 μM ascorbic acid (Sigma), 24 μM 2-mercaptoethanol (Sigma), and 1% penicillin-streptomycin (P/S; Invitrogen). The cytokines used in control condition were SCF, FLT3L, TPO, and IL-7 (also known as the “4F cytokines”, all of which were obtained from R&D Systems), each at a concentration of 20 ng/ml or 100 ng/ml as indicated in the text. All other cytokines were purchased from R&D Systems and used in the combinations and concentrations indicated in the text. For certain experiments, the γ-secretase inhibitor (2S)-N-[(3,5-Difluorophenyl)acetyl]-L-alanyl-2-phenyl] glycine 1,1-dimethylethyl ester (DAPT) or dimethyl sulfoxide (DMSO) was added to media at the concentrations indicated in the text.
For screening experiments, a Definitive Screening Design (DSD)^7 was employed where each factor was tested at three levels (scaled to [−1,0,1]). The design included at least 2m+1 runs, where m is the number of factors, comprised of m fold-over pairs plus a center run (with all factors at level 0) and with orthogonal blocking of UCB donors.^8
Absolute cell numbers were acquired for each cell population of interest and, for initial experiments, a z-score was calculated relative to the control condition:
where SE(⋅) is the standard error. Control conditions were the cytokines used previously in the DL4+VCAM-1 assay as in Shukla et al.^6 Stepwise regression using the minimum Bayesian information criterion method was used to determine significant terms and, from this, a linear regression model of z-scores was constructed that included main and quadratic effects and two-factor interactions. This provided a better- or worse-than estimate for each factor compared to the control. The DSD layout and regression model were constructed using JMP 13 software (SAS). Follow up experiments measuring the dose response of top factors, the regression model was fit to the absolute cell count. Values were square root or log-transformed as necessary to ensure that residuals were approximately normal before fitting the regression model.
Test conditions were arranged using serial dilutions of each cytokine and laid out using an Eppendorf epMotion 5070 liquid handler in 384-well plates previously coated with DL4 and VCAM-1.
To identify factors that enhance proT cell differentiation and expansion, a two-part screen was conducted from day 0-7 and day 7-14 to separate the effects of screened molecules on HSPCs and differentiating proT cells (FIG. 1a). Screened molecules were tested at three doses each in combination using a definitive screening design (DSD) experiment and a linear regression model was fit to empirical data to estimate dose response.^7 The response to factors was measured against a control condition that contained SCF, FLT3L, TPO and IL-7 cytokines as in Shukla et al.^6 but using a lower concentration of 20 ng/ml each.
Medium gray indicates the effect of the control condition; dark gray to black indicates an effect greater than the control condition; and light gray to white indicates an effect lesser than the control condition. The size of each circle indicates the significance of the effect in the linear regression model. Combinations of factors indicate two-factor interactions (e.g., TPO*IL-1β) or quadratic effects (e.g., IL-21*IL-21) in the regression model. […] IL-3 and TNFα were selected for further investigation. […]

[2] = test system: CD34+ HSPCs; experiment: TPO requirement with or without TNFα, 14-day culture; conditions: 14 days
Procedure: To assess the requirement for TPO in T lineage development, CD34+ HSPCs were analyzed by flow cytometry after 14 days in the presence or absence of TNFα, and further in the presence or absence of TPO.

[3] = test system: CD34+ HSPCs; experiment: IL-3, TNFα or IL-3+TNFα culture on DL4+VCAM-1, flow cytometry on day 7 and day 14; conditions: day 7 and day 14 (FIGS. 5d and e)
Procedure: For experiments 7 days or longer, HSPCs were seeded at 63-125 cells/mm^2 (equivalent to 2000-4000 cells/well of a 96-well plate) on DL4+VCAM-1-coated surfaces. Experiments shorter than 7 days (CFSE and qPCR) were seeded at 470-780 cells/mm^2 (equivalent to 15,000-25,000 cells/well of a 96-well plate) to provide enough cells for analysis. Cells were cultured in 100 μl/well (32 μl/well for 384-well plate) of Iscove's Modified Eagle Medium (IMDM) supplemented with 20% bovine serum albumin, insulin, and transferrin (BIT 9500) serum substitute (Stemcell Technologies), 1 μg/ml low-density lipoprotein (LDL; Stemcell Technologies), 60 μM ascorbic acid (Sigma), 24 μM 2-mercaptoethanol (Sigma), and 1% penicillin-streptomycin (P/S; Invitrogen). The cytokines used in control condition were SCF, FLT3L, TPO, and IL-7 (also known as the “4F cytokines”, all of which were obtained from R&D Systems), each at a concentration of 20 ng/ml or 100 ng/ml as indicated in the text. All other cytokines were purchased from R&D Systems and used in the combinations and concentrations indicated in the text. For certain experiments, the γ-secretase inhibitor (2S)-N-[(3,5-Difluorophenyl)acetyl]-L-alanyl-2-phenyl] glycine 1,1-dimethylethyl ester (DAPT) or dimethyl sulfoxide (DMSO) was added to media at the concentrations indicated in the text. […]

[4] = test system: HSPCs; experiment: CFSE proliferation assay of HSPCs on DL4+VCAM-1
Procedure: To track the number of cell divisions, cells were stained with 2.5 μM CellTrace™ CFSE (ThermoFisher) in PBS and incubated at 37° C. for 8 minutes. CFSE was quenched by adding 5 times the volume of IMDM+BIT and incubating at 37° C. for 5 minutes. Cells were then resuspended in fresh media and seeded on DL4+VCAM-1 for culture. For analysis, cells were collected and stained for CD34, CD7, and CD5 surface markers as described above and analyzed using flow cytometry. Proliferation was modelled using FlowJo™ software and further analysis was performed with R.
To track the number of cell divisions in response to each of IL-3 and TNFα, the HSPCs were first stained with carboxyfluorescein succinimidyl ester (CFSE). IL-3 or TNFα were added on day 0 and the number of divisions of each cell was analyzed on days 2, 3, 4 and 5.

SCF: cytokine stem cell factor, one of the 4F cytokines
effect on total live cells, CD7+ lymphocytes and CD7+CD5+ cells relative to the control condition [1]: string positive effects

TPO: cytokine thrombopoietin, one of the 4F cytokines
CD7+ lymphoid cell development after removal of TPO ([2]; TNFα present): not detrimental
number of CD7+ cells after removal of TPO ([2]; absence of TNFα): decreased significantly
number of CD14/33+ myeloid cells after removal of TPO ([2]; with or without TNFα): decreased the number of CD14/33+ myeloid cells

B1: IL-7: cytokine interleukin 7, one of the 4F cytokines (protein, UniProt P13232 26-177, looked up)
Interleukin-7: DCDIEGKDGKQYESVLMVSIDQLLDSMKEIGSNCLNNEFNFFKRHICDANKEGMFLFRAARKLRQFLKMNSTGDFDLHLLKVSEGTTILLNCTGQVKGRKPAALGEAQPTKSLEENKSLKEQKKLNDLCFLKRLLQEIKTCWNKILMGTKEH
effect on total live cells, CD7+ lymphocytes and CD7+CD5+ cells relative to the control condition [1]: string positive effects

B2: IL-3: cytokine; protein that in humans is encoded by the IL3 gene (accession P08700; SEQ ID NO: 7) (protein, listed as Homo sapiens)
chain: MSRLPVLLLLQLLVRPGLQAPMTQTTPLKTSWVNCSNMIDEIITHLKQPPLPLLDFNNLNGEDQDILMENNLRRPNLEAFNRAVKSLQNASAIESILKNLLPCLPLATAAPTRHPIHIKDGDWNEFRRKLTFYLKTLENAQAQQTTLSLAIF
number of CD14/33+ myeloid lineage cells, IL-3 compared with IL-3+TNFα conditions [3]: similar
average number of divisions vs control ([4]; CFSE, days 2-5): more divisions than the control group
variance in the number of divisions vs control ([4]; CFSE, days 2-5): significantly larger variance
CD7+ frequency vs control ([4]; by day 5): lower CD7+frequency than the control
cell fraction affected (CD7− vs CD7+ cells), number of divisions ([4]; cytokine added on day 0, days 2-5): predominantly affecting the CD7− fraction
upregulation of CD7 ([4]; days 2-5): upregulated CD7 comparably to the control
effect on total live cells, CD7+ lymphocytes and CD7+CD5+ cells relative to the control condition [1]: string positive effects
dose response of live cells, CD7+ lymphocytes and CD7+CD5+ proT cells ([1]; range of concentrations, n=2 UCB donors): curved response in at least one population
